Where “and” joins values, the source holds several entries; their conditions need not be identical. Identical values can stand only once.
Target: the molecule itself
Assay: cross-linking; DSS 500 μM, 30 min at room temperature, quenched with 10 mM Tris; NIH3T3 cells (CON, OGD, siHSPA8); Western blot for ALDH2

B1: Aldehyde dehydrogenase 2 (ALDH2) (enzyme, mouse (endogenous in NIH3T3), UniProt P47738 20-519, looked up)
chain: SAAATSAVPAPNHQPEVFCNQIFINNEWHDAVSRKTFPTVNPSTGEVICQVAEGNKEDVDKAVKAARAAFQLGSPWRRMDASDRGRLLYRLADLIERDRTYLAALETLDNGKPYVISYLVDLDMVLKCLRYYAGWADKYHGKTIPIDGDFFSYTRHEPVGVCGQIIPWNFPLLMQAWKLGPALATGNVVVMKVAEQTPLTALYVANLIKEAGFPPGVVNIVPGFGPTAGAAIASHEGVDKVAFTGSTEVGHLIQVAAGSSNLKRVTLELGGKSPNIIMSDADMDWAVEQAHFALFFNQGQCCCAGSRTFVQENVYDEFVERSVARAKSRVVGNPFDSRTEQGPQVDETQFKKILGYIKSGQQEGAKLLCGGGAAADRGYFIQPTVFGDVKDGMTIAKEEIFGPVMQILKFKTIEEVVGRANDSKYGLAAAVFTKDLDKANYLSQALQAGTVWINCYDVFGAQSPFGGYKMSGSGRELGEYGLQAYTEVKTVTVKVPQKNS
notes: Aldehyde dehydrogenase 2, mitochondrial, endogenous in the mouse fibroblast line NIH3T3; Seen as dimer and tetramer after DSS cross-linking; also called mitochondrial ALDH2; mitochondrial aldehyde dehydrogenase; source: endogenous, NIH3T3 lysate
stoichiometry N: 2 and 4
